Values quoted from earlier work, collected in patent US20070178499.

Legend:
[1] = tested on: E2C(S) 6-finger (artificial); details: CITED (Beerli 2000)
[2] = tested on: Aart(S) 6-finger (artificial); details: CITED?; affinity stated without method

Substance: E3 site of erbB-3
- binding signal (fold loss in affinity vs n8) [1]: 15

Substance: Aart 18-bp target site
- Kd [2]: 7.5 pM
